The target in test [1] is Polyvalent sialyl Le^a-HSA (Isosep AB). Kind of test: ELISA on plates coated with sialyl-Lewis^a-HSA, OD 450nm.
Test [2] has the same target. Nature of the test: ELISA on coated sialyl-Lewis^a-HSA.
For test [3] the target is unchanged. Nature of the test: SPR (Biacore X or 3000), sialyl Le^a-HSA coupled to CM5 chip; major population; major population (80%), two-population fit.
The target is the same in test [4]. Kind of test: SPR (Biacore X or 3000), sialyl Le^a-HSA coupled to CM5 chip; minor population.
Test [5] shares this target. Kind of test: SPR, real-time sialyl Le^a-HSA binding, antigen on CM5 chip. In general terms: Surface plasmon resonance follows binding to a sensor surface in real time, without labels.
Test [6] has the same target. Kind of test: SPR (Biacore X or 3000), sialyl Le^a-HSA coupled to CM5 chip; major population.
Test [7] shares this target. Nature of the test: SPR (Biacore X or 3000), sialyl Le^a-HSA coupled to CM5 chip; minor population; minor population (20%), two-population fit.

The results in this text go back to patent publication US10835618.

Chain of FG129 mAb (mouse FG129/29 IgG1 kappa) (antibody) (heavy): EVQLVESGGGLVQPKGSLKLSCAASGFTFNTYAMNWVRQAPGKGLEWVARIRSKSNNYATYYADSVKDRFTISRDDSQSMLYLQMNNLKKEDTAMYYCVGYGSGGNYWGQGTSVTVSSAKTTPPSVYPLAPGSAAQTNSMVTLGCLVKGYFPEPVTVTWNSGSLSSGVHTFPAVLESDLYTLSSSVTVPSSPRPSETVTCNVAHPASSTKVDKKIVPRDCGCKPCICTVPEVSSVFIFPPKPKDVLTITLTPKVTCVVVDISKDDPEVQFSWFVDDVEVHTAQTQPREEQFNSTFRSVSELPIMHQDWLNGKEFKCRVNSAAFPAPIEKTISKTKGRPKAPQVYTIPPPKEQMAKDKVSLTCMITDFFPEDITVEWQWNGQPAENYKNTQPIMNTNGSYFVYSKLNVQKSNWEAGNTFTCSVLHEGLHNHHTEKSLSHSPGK
Chain of FG129 mAb (mouse FG129/29 IgG1 kappa) (antibody) (light): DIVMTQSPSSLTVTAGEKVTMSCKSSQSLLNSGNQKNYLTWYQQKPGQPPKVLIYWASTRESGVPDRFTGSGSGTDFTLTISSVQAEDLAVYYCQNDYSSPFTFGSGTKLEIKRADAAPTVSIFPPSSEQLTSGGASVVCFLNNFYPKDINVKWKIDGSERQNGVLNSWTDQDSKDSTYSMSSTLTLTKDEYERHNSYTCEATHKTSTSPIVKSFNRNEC

One may read the EC50 as the concentration at which the effect is half-maximal. Low values mean greater potency, high ones weaker potency. On to “CA19.9 (anti-sialyl lewis a Mab) (antibody)”, for which the EC50 in test [1] came to 0.186 nM.

In general, Kd refers to the free concentration of one partner at which half of the binding sites on the other are occupied at equilibrium, for simple one-to-one binding. Low readings indicate tighter binding, high ones weaker binding. As a reminder, the kon is the second-order rate constant of association. Read a low kon as slower complex formation. The koff is the first-order rate constant of dissociation. As to “FG129 mAb (mouse FG129/29 IgG1 kappa) (antibody)”, the concentration giving a half-maximal response (EC50) stood at 0.1 nM in test [2] and 0.287 nM in test [1]. In addition, the dissociation constant (Kd) in test [3] was 130 nM; in test [4] it was 0.00014 nM; in test [5], 0.2 nM. Besides, the kon in test [4] worked out at 88500 M⁻¹ s⁻¹; in test [5] it was 620000 M⁻¹ s⁻¹; in test [6], 19700 M⁻¹ s⁻¹. The off-rate (koff) in test [5] is 0.00011 s⁻¹; in test [6], 0.00257 s⁻¹; in test [7], 1.35e-08 s⁻¹.
